The source of these data is IntAct's records for PubMed 11779505.

Sequences and labels used below:
B1: Mothers against decapentaplegic homolog 4 (Homo sapiens), Q13485 (parent)
chain: MDNMSITNTPTSNDACLSIVHSLMCHRQGGESETFAKRAIESLVKKLKEKKDELDSLITAITTNGAHPSKCVTIQRTLDGRLQVAGRKGFPHVIYARLWRWPDLHKNELKHVKYCQYAFDLKCDSVCVNPYHYERVVSPGIDLSGLTLQSNAPSSMMVKDEYVHDFEGQPSLSTEGHSIQTIQHPPSNRASTETYSTPALLAPSESNATSTANFPNIPVASTSQPASILGGSHSEGLLQIASGPQPGQQQNGFTGQPATYHHNSTTTWTGSRTAPYTPNLPHHQNGHLQHHPPMPPHPGHYWPVHNELAFQPPISNHPAPEYWCSIAYFEMDVQVGETFKVPSSCPIVTVDGYVDPSGGDRFCLGQLSNVHRTEAIERARLHIGKGVQLECKGEGDVWVRCLSDHAVFVQSYYLDREAGRAPGDAVHKIYPSAYIKVFDLRQCHRQMQQQAATAQAAAAAQAAAVAGNIPGPGSVGGIAPAISLSAAAGIGVDDLRRLCILRMSFVKGWGPDYPRQSIKETPCWIEIHLHRALQLLDEVLHTMPIADPQPLD

In this test the parent is B1. The settings on record: with smad1_human SMAD1, Q15797.
Sequence of smad1_human SMAD1, Q15797 (Q15797 whole entry): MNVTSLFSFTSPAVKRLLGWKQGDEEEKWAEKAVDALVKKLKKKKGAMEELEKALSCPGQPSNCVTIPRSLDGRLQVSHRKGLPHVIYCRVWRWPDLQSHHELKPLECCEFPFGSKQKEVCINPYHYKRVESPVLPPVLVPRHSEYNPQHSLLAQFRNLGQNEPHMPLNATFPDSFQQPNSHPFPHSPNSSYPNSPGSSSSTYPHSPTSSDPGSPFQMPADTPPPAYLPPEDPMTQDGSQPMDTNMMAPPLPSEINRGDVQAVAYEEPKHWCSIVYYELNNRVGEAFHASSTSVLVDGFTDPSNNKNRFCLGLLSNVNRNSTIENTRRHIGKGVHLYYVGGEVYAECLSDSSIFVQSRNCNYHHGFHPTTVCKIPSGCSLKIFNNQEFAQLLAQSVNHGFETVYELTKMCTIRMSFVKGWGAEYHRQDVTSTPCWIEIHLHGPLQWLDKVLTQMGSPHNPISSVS
K507S: the “effect of a mutation on the interaction” value is listed as “disrupting interaction strength”.
With R515S the entry was “disrupting interaction strength”.
With V426S the entry was “decreasing interaction strength”.
With D351H the entry was “disrupting interaction strength”.
Take D537E: the “effect of a mutation on the interaction” value is given as “decreasing interaction strength”.
